Consider 1 protein from paper PMC7392197 (Journal of the American Chemical Society, 2020).

The series deals with the molecule itself. The experiment in a line: SEC. A general note: In gel filtration, larger molecules generally elute earlier.

B1: His6-MBP-UvrC fusion protein (holo form, with [4Fe4S] cluster) (enzyme, E. coli, UniProt P0A8G0 1-610, looked up)
chain: MSDQFDAKAFLKTVTSQPGVYRMYDAGGTVIYVGKAKDLKKRLSSYFRSNLASRKTEALVAQIQQIDVTVTHTETEALLLEHNYIKLYQPRYNVLLRDDKSYPFIFLSGDTHPRLAMHRGAKHAKGEYFGPFPNGYAVRETLALLQKIFPIRQCENSVYRNRSRPCLQYQIGRCLGPCVEGLVSEEEYAQQVEYVRLFLSGKDDQVLTQLISRMETASQNLEFEEAARIRDQIQAVRRVTEKQFVSNTGDDLDVIGVAFDAGMACVHVLFIRQGKVLGSRSYFPKVPGGTELSEVVETFVGQFYLQGSQMRTLPGEILLDFNLSDKTLLADSLSELAGRKINVQTKPRGDRARYLKLARTNAATALTSKLSQQSTVHQRLTALASVLKLPEVKRMECFDISHTMGEQTVASCVVFDANGPLRAEYRRYNITGITPGDDYAAMNQVLRRRYGKAIDDSKIPDVILIDGGKGQLAQAKNVFAELDVSWDKNHPLLLGVAKGADRKAGLETLFFEPEGEGFSLPPDSPALHVIQHIRDESHDHAIGGHRKKRAKVKNTSSLETIEGVGPKRRQMLLKYMGGLQGLRNASVEEIAKVPGISQGLAEKIFWSLKH
Regarding B1, the “stoichiometry N” value was 2.

As a reminder, the stoichiometry N is the number of molecules, sites or subunits per partner or assembly.
